Paper PMC6335422 (Nature Communications, 2019)
Values belong to the molecule of their own block, whether it stands above or below them. Primed or numbered codes have the meaning given here. Where no end group is shown, it is not given here. SUMO″ = SUMO fusion tag (N-terminal); SUMO = SUMO tag, N-terminal

How the values were obtained:
Erh1 (Erh1wt) = target: T1, Erh1 (Erh1wt) (Schizosaccharomyces pombe, UniProt G2TRN4); experiment: Isothermal titration calorimetry (ITC), SUMO-tagged Mmi1 peptides titrated into wild-type Erh1; format: binding, S. pombe; details: for -TΔS / ΔH (binding enthalpy): Erh1wt; for ΔH (binding enthalpy): single-site model; for binding / affinity for Erh1 (in words): ITC (Supplementary Table 1; Fig. 1d, f), relative to Mmi1^95–122
T1 construct: A region of Erh1 (residues 1–104) was amplified by PCR; made in house; host or cells: Escherichia coli BL21 (Gold)
T1 sequence (G2TRN4 1-104): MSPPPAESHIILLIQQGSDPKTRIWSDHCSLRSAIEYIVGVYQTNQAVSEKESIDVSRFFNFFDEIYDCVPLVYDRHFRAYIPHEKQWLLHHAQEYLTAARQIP
Description: The titration protocol consisted of a single initial injection of 1 µl, followed by 19 injections of 2 µl SUMO-tagged Mmi1 peptides into the sample cell containing Erh1 protein. Thermodynamic data were analyzed with a single-site binding model using MicroCal PEAQ-ITC Analysis Software provided by the manufacturer.

[1] = target: T2, Erh1 (residues 1-104), wild type (S. pombe, UniProt G2TRN4 1-104); experiment: ITC; SUMO-tagged Mmi1 peptides titrated into Erh1 in the sample cell; MicroCal iTC200, 293 K; 20 mM Tris-HCl pH 7.5, 150 mM NaCl; single-site binding model; details: both partners purified
T2 construct: Erh1, S. pombe, residues 1-104, amplified from the S. pombe genome, in a modified pET28a vector without thrombin site (p28a); also called Erh1wt; Enhancer of rudimentary homolog 1; source: E. coli BL21 (Gold), purified (Ni-chelating resin, size-exclusion chromatography)
T2 sequence (looked up): T1 sequence (G2TRN4 1-104)

Erh1 = experiment: GST pull-down of Erh1 with GST-tagged Mmi1 fragments, Coomassie; format: binding, S. pombe; details: GST-Mmi1 fusion incubated with Erh1, glutathione-agarose, SDS-PAGE
From the text: Fig. 1 Mmi1 interacts with Erh1 in a 2:2 stoichiometry. a Shown is a schematic representation of the domain architecture of Mmi1. The disorder score from DISOPRED3 Server[62] and the conservation score are shown below. The conservation score is generated by a Protein Residue Conservation Prediction Server[63] from the sequence alignment of Mmi1 orthologues from S. pombe, S. cryophilus, S. octosporus, and S. japonicus. b–d Interactions of GST tagged Mmi1 peptides (GST-Mmi1) with Erh1 visualized by Coomassie blue staining. The indicated GST-Mmi1 fusion proteins or GST alone were incubated with Erh1. The complexes were collected with glutathione-agarose resin and bound proteins were eluted and then subjected to SDS-PAGE. GST or GST-Mmi1 fusion proteins without Erh1 are shown as a negative control. Source data are provided as a Source Data file. e The raw ITC titration data of Erh1 with SUMO tagged Mmi1^95–122 and its fitting curve are shown. KD dissociation constant, DP differential power, N binding stoichiometry, ΔH binding enthalpy. f ITC fitting curves of Erh1 using SUMO tagged Mmi1^95–122 (magenta), Mmi1^106–122 (blue) and Mmi1^95–111 (green) are shown. g Size-exclusion analysis of Erh1 (magenta) and Erh1-Mmi1^95–122 (blue). Marker sizes are 62.9 KDa (Albumin), 46.7 KDa (Ovalbumin), 20.3 KDa (Chymotrypsinogen), 14.6 KDa (Ribonuclease A). Also shown are theoretical monomer sizes (kDa) of Erh1 protein and Mmi1^95–122 peptide TEXT PRINTED IN THE PICTURE: (e) Mmi1^95–122 - Erh1: KD (μM) 0.83±0.19; N (sites) 0.90±0.01; ΔH (kJ per mol) −106±3.02 | (f) Mmi1^95–122: Erh1 KD (μM): 0.83±0.19 | (f) Mmi1^106–122: Erh1 KD (μM): 9.94±1.19 | (f) Mmi1^95–111: Erh1 KD (μM): no binding | (g) Erh1: 13.2 kDa | (g) Mmi1^95–122: 3.5 kDa
A region of Erh1 (residues 1–104) was amplified by PCR from the S. pombe genome and cloned into a modified pET28a (Novagen) vector without a thrombin protease cleavage site (p28a). GST-Mmi1^YTH was sub-cloned from a Mmi1^YTH-p28a construct to a modified PGex-4T1 vector with a TEV protease cleavage site (Tev4T1). […]

[2] = ITC, 293 K, 20 mM Tris-HCl pH 7.5, 150 mM NaCl, SUMO-tagged Mmi1 peptide

Molecule: Mmi1H108A: Mmi1 peptide mutant H108A ({SUMO}-GKYDFSRHCTDYGASYEWPYFRSLRRES; not fully specified)
-TΔS (Erh1 (Erh1wt); [2]): -21.2 kJ per mol
ΔH (binding enthalpy) (Erh1 (Erh1wt); [2]): -9.97±2.43 kJ per mol

Molecule: Mmi1F99A: Mmi1 peptide mutant F99A ({SUMO}-GKYDASRHCTDYGHSYEWPYFRSLRRES; not fully specified)
-TΔS (Erh1 (Erh1wt); [2]): 8.86 kJ per mol
ΔH (binding enthalpy) (Erh1 (Erh1wt); [2]): -42.6±1.83 kJ per mol
binding / affinity for Erh1 (in words) (Erh1 (Erh1wt)): reduced affinities for Erh1

Molecule: Mmi1Y110A: Mmi1 peptide mutant Y110A ({SUMO}-GKYDFSRHCTDYGHSAEWPYFRSLRRES; not fully specified)
-TΔS (Erh1 (Erh1wt); [2]): 246 kJ per mol
ΔH (binding enthalpy) (Erh1 (Erh1wt); [2]): -273±20.3 kJ per mol

Molecule: Mmi1^106–122: further truncated Mmi1 fragment, residues 106–122 ({SUMO″}-YGHSYEWPYFRSLRRES; not fully specified)
-TΔS (Erh1 (Erh1wt); [2]): 45.5 kJ per mol
ΔH (binding enthalpy) (Erh1 (Erh1wt); [2]): -73.6±2.69 kJ per mol
binding / affinity for Erh1 (in words) (Erh1 (Erh1wt)): decreased binding to Erh1

B2: GST-tagged Mmi1^1–122: purified GST-tagged Mmi1 amino-terminal fragment, residues 1–122 (protein, UniProt O74958 1-122, looked up, fragment)
chain: MSNTNFSTSRSSKSIPELPNLEALRSLWPPPSLNESGDTRSVWTTHTGEPVASSVLSTSGSNNFSSPLKRPAPESHDAPIGRRLMVDDPRLIKHGKYDFSRHCTDYGHSYEWPYFRSLRRES
modifications: GST tag
interaction with Erh1 (GST pull-down) (Erh1): bound efficiently to Erh1

B3: SUMO-tagged Mmi1 95-122 Y97A (domain or fragment, S. pombe, UniProt O74958 95-122, looked up)
chain: GKADFSRHCTDYGHSYEWPYFRSLRRES
notes: also called Mmi1 Y97A; source: E. coli BL21 (Gold), purified (Ni-chelating resin, size-exclusion chromatography); not shown: SUMO, N-terminal, kept
Kd [1]: 1.75 ± 0.317 µM
stoichiometry N [1]: 1.27

B5: SUMO-tagged Mmi1 95-122 Y110A (domain or fragment, S. pombe, UniProt O74958 95-122, looked up)
chain: GKYDFSRHCTDYGHSAEWPYFRSLRRES
notes: also called Mmi1 Y110A; source: E. coli BL21 (Gold), purified (Ni-chelating resin, size-exclusion chromatography); not shown: SUMO, N-terminal, kept
Kd [1]: 15 ± 2.71 µM
stoichiometry N [1]: 1

B7: SUMO-tagged Mmi1 95-122 F115A (domain or fragment, S. pombe, UniProt O74958 95-122, looked up)
chain: GKYDFSRHCTDYGHSYEWPYARSLRRES
notes: also called Mmi1 F115A; source: E. coli BL21 (Gold), purified (Ni-chelating resin, size-exclusion chromatography); not shown: SUMO, N-terminal, kept
Kd [1]: 1.8 ± 0.121 µM
stoichiometry N [1]: 0.9

B9: SUMO-tagged Mmi1 95-122 F99A (domain or fragment, S. pombe, UniProt O74958 95-122, looked up)
chain: GKYDASRHCTDYGHSYEWPYFRSLRRES
notes: also called Mmi1 F99A; source: E. coli BL21 (Gold), purified (Ni-chelating resin, size-exclusion chromatography); not shown: SUMO, N-terminal, kept
Kd [1]: 0.996 ± 0.355 µM
stoichiometry N [1]: 1.38

B10: SUMO-tagged Mmi1 95-122 Y106A (domain or fragment, S. pombe, UniProt O74958 95-122, looked up)
chain: GKYDFSRHCTDAGHSYEWPYFRSLRRES
notes: also called Mmi1 Y106A; source: E. coli BL21 (Gold), purified (Ni-chelating resin, size-exclusion chromatography); not shown: SUMO, N-terminal, kept
Kd [1]: 1.63 ± 0.473 µM
stoichiometry N [1]: 1.36

B11: SUMO-tagged Mmi1 95-122 R119A (domain or fragment, S. pombe, UniProt O74958 95-122, looked up)
chain: GKYDFSRHCTDYGHSYEWPYFRSLARES
notes: also called Mmi1 R119A; source: E. coli BL21 (Gold), purified (Ni-chelating resin, size-exclusion chromatography); not shown: SUMO, N-terminal, kept
Kd [1]: 1.22 ± 0.27 µM
stoichiometry N [1]: 1.12

Further lines, results first:

-TΔS (Erh1 (Erh1wt); [2]): 6.04 kJ per mol
ΔH (binding enthalpy) (Erh1 (Erh1wt); [2]): -36.0±3.16 kJ per mol
Molecule: Mmi1S100A: Mmi1 peptide mutant S100A ({SUMO}-GKYDFARHCTDYGHSYEWPYFRSLRRES; not fully specified)

-TΔS (Erh1 (Erh1wt); [2]): 22.8 kJ per mol
ΔH (binding enthalpy) (Erh1 (Erh1wt); [2]): -53.7±1.31 kJ per mol
Molecule: Mmi1T104A: Mmi1 peptide mutant T104A ({SUMO}-GKYDFSRHCADYGHSYEWPYFRSLRRES; not fully specified)

-TΔS (Erh1 (Erh1wt); [2]): 13.8 kJ per mol
ΔH (binding enthalpy) (Erh1 (Erh1wt); [2]): -46.1±1.20 kJ per mol
binding / affinity for Erh1 (in words) (Erh1 (Erh1wt)): reduced affinities for Erh1
Molecule: Mmi1Y97A: Mmi1 peptide mutant Y97A ({SUMO}-GKADFSRHCTDYGHSYEWPYFRSLRRES; not fully specified)

-TΔS (Erh1 (Erh1wt); [2]): 31.1 kJ per mol
ΔH (binding enthalpy) (Erh1 (Erh1wt); [2]): -61.8±1.07 kJ per mol
binding / affinity for Erh1 (in words) (Erh1 (Erh1wt)): reduced affinities for Erh1
Molecule: Mmi1Y114A: Mmi1 peptide mutant Y114A ({SUMO}-GKYDFSRHCTDYGHSYEWPAFRSLRRES; not fully specified)

binding / affinity for Erh1 (in words) (Erh1 (Erh1wt)): did not bind at all
KD (dissociation constant) (Erh1 (Erh1wt); text and figures 1e, 1f, 3e, Erh1, ITC, 293 K, 20 mM Tris-HCl pH 7.5, 150 mM NaCl, SUMO-tagged Mmi1 peptide): no binding
Molecule: Mmi1^95–111: truncated Mmi1 peptide, residues 95–111 ({SUMO″}-GKYDFSRHCTDYGHSYE; not fully specified)

-TΔS (Erh1 (Erh1wt); [2]): 11.3 kJ per mol
ΔH (binding enthalpy) (Erh1 (Erh1wt); [2]): -43.8±2.35 kJ per mol
Molecule: Mmi1Y106A: Mmi1 peptide mutant Y106A ({SUMO}-GKYDFSRHCTDAGHSYEWPYFRSLRRES; not fully specified)

-TΔS (Erh1 (Erh1wt); [2]): 13.1 kJ per mol
ΔH (binding enthalpy) (Erh1 (Erh1wt); [2]): -46.3±1.28 kJ per mol
binding / affinity for Erh1 (in words) (Erh1 (Erh1wt)): reduced
Molecule: Mmi1R119A: Mmi1 peptide mutant R119A ({SUMO}-GKYDFSRHCTDYGHSYEWPYFRSLARES; not fully specified)

-TΔS (Erh1 (Erh1wt); [2]): 35.7 kJ per mol
ΔH (binding enthalpy) (Erh1 (Erh1wt); [2]): -68.0±0.673 kJ per mol
binding / affinity for Erh1 (in words) (Erh1 (Erh1wt)): reduced affinities for Erh1
Molecule: Mmi1F115A: Mmi1 peptide mutant F115A ({SUMO}-GKYDFSRHCTDYGHSYEWPYARSLRRES; not fully specified)

Kd [1]: 9.94 ± 1.19 µM
stoichiometry N [1]: 0.89
B1: SUMO-tagged Mmi1 106-122 (domain or fragment, S. pombe, UniProt O74958 106-122, looked up)
chain: YGHSYEWPYFRSLRRES
notes: source: E. coli BL21 (Gold), purified (Ni-chelating resin, size-exclusion chromatography); not shown: SUMO, N-terminal, kept

Kd [1]: 2.78 ± 2.15 µM
stoichiometry N [1]: 1.36
B4: SUMO-tagged Mmi1 95-122 H108A (domain or fragment, S. pombe, UniProt O74958 95-122, looked up)
chain: GKYDFSRHCTDYGASYEWPYFRSLRRES
notes: also called Mmi1 H108A; source: E. coli BL21 (Gold), purified (Ni-chelating resin, size-exclusion chromatography); not shown: SUMO, N-terminal, kept

Kd [1]: 3.27 ± 0.425 µM
stoichiometry N [1]: 1.45
B6: SUMO-tagged Mmi1 95-122 T104A (domain or fragment, S. pombe, UniProt O74958 95-122, looked up)
chain: GKYDFSRHCADYGHSYEWPYFRSLRRES
notes: also called Mmi1 T104A; source: E. coli BL21 (Gold), purified (Ni-chelating resin, size-exclusion chromatography); not shown: SUMO, N-terminal, kept

Kd [1]: 3.52 ± 0.323 µM
stoichiometry N [1]: 0.97
B8: SUMO-tagged Mmi1 95-122 Y114A (domain or fragment, S. pombe, UniProt O74958 95-122, looked up)
chain: GKYDFSRHCTDYGHSYEWPAFRSLRRES
notes: also called Mmi1 Y114A; source: E. coli BL21 (Gold), purified (Ni-chelating resin, size-exclusion chromatography); not shown: SUMO, N-terminal, kept

Kd [1]: 4.73 ± 1.62 µM
stoichiometry N [1]: 1.36
B12: SUMO-tagged Mmi1 95-122 S100A (domain or fragment, S. pombe, UniProt O74958 95-122, looked up)
chain: GKYDFARHCTDYGHSYEWPYFRSLRRES
notes: also called Mmi1 S100A; source: E. coli BL21 (Gold), purified (Ni-chelating resin, size-exclusion chromatography); not shown: SUMO, N-terminal, kept
